# T1: BtuCD (Escherichia coli, UniProt P06611)
# T1 construct: gene btuD; BtuC2D2 tetramer without BtuF; pET19b-BtuCD in E. coli BL21(DE3), LDAO purified, MS in C8E4; theoretical mass 128,839 Da; with Vitamin B12 import system permease protein BtuC
# T1 sequence (P06611 1-249): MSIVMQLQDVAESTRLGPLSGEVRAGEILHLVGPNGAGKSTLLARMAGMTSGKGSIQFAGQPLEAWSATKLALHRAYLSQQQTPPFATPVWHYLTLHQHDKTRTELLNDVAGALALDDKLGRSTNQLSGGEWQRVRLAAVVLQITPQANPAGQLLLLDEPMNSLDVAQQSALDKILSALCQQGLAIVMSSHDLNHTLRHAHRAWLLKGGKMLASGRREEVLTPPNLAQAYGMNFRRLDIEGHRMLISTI
# T1 sequence (P06609 1-326 partner): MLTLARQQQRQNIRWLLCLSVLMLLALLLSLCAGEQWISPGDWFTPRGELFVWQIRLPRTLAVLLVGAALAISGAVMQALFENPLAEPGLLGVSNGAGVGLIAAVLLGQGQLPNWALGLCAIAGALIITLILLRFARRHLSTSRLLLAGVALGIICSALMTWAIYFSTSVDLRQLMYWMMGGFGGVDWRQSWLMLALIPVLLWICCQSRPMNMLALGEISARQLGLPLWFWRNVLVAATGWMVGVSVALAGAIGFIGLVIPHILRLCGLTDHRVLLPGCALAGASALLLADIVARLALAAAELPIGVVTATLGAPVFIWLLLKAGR
# T2: BtuCD-F (Escherichia coli, UniProt P06611)
# T2 construct: gene btuD; BtuC2D2-F complex; BtuCD from pET19b-BtuCD in E. coli BL21(DE3), LDAO purified, MS in C8E4; BtuF residues 23-266; theoretical mass 158,253 Da; with Vitamin B12 import system permease protein BtuC
# T2 sequence (P06611 1-249): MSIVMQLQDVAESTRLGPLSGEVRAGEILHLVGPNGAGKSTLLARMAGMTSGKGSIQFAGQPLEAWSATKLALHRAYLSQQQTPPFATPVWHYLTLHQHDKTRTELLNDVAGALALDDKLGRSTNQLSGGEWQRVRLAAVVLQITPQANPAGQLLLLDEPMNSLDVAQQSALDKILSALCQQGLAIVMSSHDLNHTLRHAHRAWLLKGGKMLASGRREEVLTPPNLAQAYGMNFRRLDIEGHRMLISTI
# T2 sequence (P06609 1-326 partner): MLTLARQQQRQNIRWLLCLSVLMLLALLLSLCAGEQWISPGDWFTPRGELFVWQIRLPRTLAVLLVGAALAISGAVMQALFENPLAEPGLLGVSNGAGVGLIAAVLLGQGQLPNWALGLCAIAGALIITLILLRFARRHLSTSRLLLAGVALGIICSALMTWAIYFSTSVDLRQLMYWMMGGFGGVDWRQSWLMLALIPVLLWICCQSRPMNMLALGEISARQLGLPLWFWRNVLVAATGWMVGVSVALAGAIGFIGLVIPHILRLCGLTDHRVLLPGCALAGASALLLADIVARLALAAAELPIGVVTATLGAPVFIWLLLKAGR
# T2 sequence (P37028 23-266 partner): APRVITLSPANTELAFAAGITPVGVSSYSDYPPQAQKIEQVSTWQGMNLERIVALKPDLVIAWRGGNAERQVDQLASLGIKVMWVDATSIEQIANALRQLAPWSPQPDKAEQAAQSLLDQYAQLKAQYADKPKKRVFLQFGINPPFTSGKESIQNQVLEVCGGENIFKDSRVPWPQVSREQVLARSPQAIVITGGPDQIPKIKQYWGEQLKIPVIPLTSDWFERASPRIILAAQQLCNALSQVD
# T3: BtuC, transmembrane subunit of BtuCD of Escherichia coli (E. coli, UniProt P06609 1-326)
# T3 construct: BtuC, transmembrane subunit of the vitamin B12 importer BtuCD, E. coli; construct pET19b-BtuCD; source: E. coli BL21(DE3), co-purified as BtuCD from membranes (LDAO, HisTrap, SEC)
# T3 sequence: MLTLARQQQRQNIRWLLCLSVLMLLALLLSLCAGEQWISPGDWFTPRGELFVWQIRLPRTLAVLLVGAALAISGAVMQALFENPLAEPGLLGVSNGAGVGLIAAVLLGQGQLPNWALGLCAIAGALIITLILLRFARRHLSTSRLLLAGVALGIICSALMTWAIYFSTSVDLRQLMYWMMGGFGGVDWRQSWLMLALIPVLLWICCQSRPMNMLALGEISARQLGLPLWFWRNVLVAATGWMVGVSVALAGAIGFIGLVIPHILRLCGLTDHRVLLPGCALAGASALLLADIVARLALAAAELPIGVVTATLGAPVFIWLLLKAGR
# T4: ModB, transmembrane subunit of ModBC of Archaeoglobus fulgidus (A. fulgidus, UniProt O30143 1-261)
# T4 construct: ModB, transmembrane subunit of the molybdate importer ModBC, A. fulgidus; construct pET19b-ModBC; source: E. coli BL21(DE3), co-purified as ModBC from membranes (DDM and C12E8, HisTrap, SEC)
# T4 sequence: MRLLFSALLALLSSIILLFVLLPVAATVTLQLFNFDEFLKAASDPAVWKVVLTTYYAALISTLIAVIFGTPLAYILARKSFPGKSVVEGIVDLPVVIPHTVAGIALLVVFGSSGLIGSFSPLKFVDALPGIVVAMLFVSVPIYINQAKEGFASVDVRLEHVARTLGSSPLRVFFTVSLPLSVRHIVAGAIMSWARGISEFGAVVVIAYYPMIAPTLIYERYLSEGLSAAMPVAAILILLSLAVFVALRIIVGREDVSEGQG
# T5: vitamin B12 transporter BtuCD (BtuC2D2) of Escherichia coli (E. coli, UniProt P06609 1-326; P06611 1-249)
# T5 construct: BtuC, transmembrane subunit of the vitamin B12 importer BtuCD, E. coli; construct pET19b-BtuCD, gift from Kaspar Locher; Purified on a HisTrap column from pET19b-BtuCD; also called tetrameric transporter; source: E. coli BL21(DE3), purified from membranes (LDAO, HisTrap, Superdex 200 SEC); copies: 2 + 2
# T5 sequence 1: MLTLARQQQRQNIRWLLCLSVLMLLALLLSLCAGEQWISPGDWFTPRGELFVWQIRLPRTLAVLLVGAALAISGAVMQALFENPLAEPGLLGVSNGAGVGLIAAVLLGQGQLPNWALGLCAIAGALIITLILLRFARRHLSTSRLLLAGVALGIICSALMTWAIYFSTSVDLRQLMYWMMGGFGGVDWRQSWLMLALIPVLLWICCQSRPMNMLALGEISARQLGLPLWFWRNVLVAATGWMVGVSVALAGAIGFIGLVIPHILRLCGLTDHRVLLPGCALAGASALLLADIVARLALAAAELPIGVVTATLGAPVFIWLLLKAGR
# T5 sequence 2: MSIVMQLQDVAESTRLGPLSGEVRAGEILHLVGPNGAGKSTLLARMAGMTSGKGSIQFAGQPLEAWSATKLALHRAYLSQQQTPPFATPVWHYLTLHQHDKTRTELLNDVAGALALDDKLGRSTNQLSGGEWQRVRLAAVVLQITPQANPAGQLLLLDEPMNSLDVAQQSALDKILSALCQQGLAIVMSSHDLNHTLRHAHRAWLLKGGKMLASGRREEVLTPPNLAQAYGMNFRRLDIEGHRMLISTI
# What was measured:
# BtuCD = biological target: T1, BtuCD; assay: native mass spectrometry; type: binding; conditions: free BtuCD population beside BtuCD-F, C8E4
# BtuCD-F = biological target: T2, BtuCD-F; assay: native mass spectrometry; type: binding; conditions: then BtuF, C8E4
# [1] = biological target: T6, ModBC-A⋅MoO4^2− (nucleotide row) (Archaeoglobus fulgidus, UniProt O30144); assay: native mass spectrometry; type: binding; conditions: 10 uM ATP and MgCl2 added to ModBC, ModA preloaded with molybdate; one and two ADP bound; C8E4
# T6 construct: gene wtpC; nucleotide site on the NBDs (ModC); with Molybdate/tungstate transport system permease protein WtpB
# T6 sequence (O30142 32-342 partner, one chain of several): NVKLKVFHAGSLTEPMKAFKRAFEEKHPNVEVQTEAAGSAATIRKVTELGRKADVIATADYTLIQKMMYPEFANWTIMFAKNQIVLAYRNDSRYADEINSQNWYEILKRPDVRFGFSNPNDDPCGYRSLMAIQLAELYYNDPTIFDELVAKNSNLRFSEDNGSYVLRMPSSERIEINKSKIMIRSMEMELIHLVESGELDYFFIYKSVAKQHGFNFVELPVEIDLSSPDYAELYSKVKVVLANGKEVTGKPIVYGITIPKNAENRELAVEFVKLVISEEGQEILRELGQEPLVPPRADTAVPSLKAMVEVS
# [2] = biological target: T3, BtuC, transmembrane subunit of BtuCD of …; assay: native MS; co-expressed and co-purified transporter alone, buffer exchanged into 200 mM ammonium acetate with 0.5% C8E4; conditions: both partners purified
# [3] = biological target: T4, ModB, transmembrane subunit of ModBC of …; assay: as above; conditions: both partners purified
# [4] = biological target: T5, vitamin B12 transporter BtuCD (BtuC2D2) …; assay: native MS; BtuF and BtuCD incubated in a 1:2 molar ratio (BtuF:BtuCD) in 200 mM ammonium acetate with 0.5% C8E4; without ligand, or with 2 mM vitamin B12, dicyanocobinamide or vitamin B9 added to BtuF before buffer exchange, or 5 mM ATP/MgCl2 or 5 mM AMP-PNP added to BtuCD before buffer exchange, or vitamin B12 and ATP together; conditions: both partners purified
molecule,measurement,setting,value
"Nc1ncnc2c1ncn2[C@@H]1O[C@H](COP(=O)(O)OP(=O)(O)NP(=O)(O)O)[C@@H](O)[C@H]1O [AMP-PNP, Adenosine 5’-(β,γ-imido)triphosphate]",bound species by mass,BtuCD; 5 mM AMP-PNP added before buffer exchange,BtuCD was bound to the two different nucleotides in a similar fashion
same,observed mass of complex,"BtuCD-F; 5 mM AMP-PNP added to BtuCD before buffer exchange, two bound",apo-BtuCD-F as well as a population assigned to BtuCD-F⋅2AMP-PNP
Nc1ncnc2c1ncn2[C@@H]1O[C@H](COP(=O)(O)OP(=O)(O)O)[C@@H](O)[C@H]1O [ADP],bound species by mass,BtuCD; 5 mM ATP and 5 mM MgCl2 added before buffer exchange,The presence of ADP-bound species of both BtuCD-F and BtuCD are observed
same,observed mass of complex,"BtuCD-F; 5 mM ATP and 5 mM MgCl2 added to BtuCD before buffer exchange, one and two ADP bound",two nucleotide-bound states with one and two ADP molecules bound
same,observed mass of complex,[1],an apo form and the species bound to one and two ADP molecules
"BtuD, nucleotide binding subunit of BtuCD of Escherichia coli (natural protein, E. coli, construct pET19b-BtuCD; source: E. coli BL21(DE3), co-purified as BtuCD from membranes (LDAO, HisTrap, SEC)) MSIVMQLQDVAESTRLGPLSGEVRAGEILHLVGPNGAGKSTLLARMAGMTSGKGSIQFAGQPLEAWSATKLALHRAYLSQQQTPPFATPVWHYLTLHQHDKTRTELLNDVAGALALDDKLGRSTNQLSGGEWQRVRLAAVVLQITPQANPAGQLLLLDEPMNSLDVAQQSALDKILSALCQQGLAIVMSSHDLNHTLRHAHRAWLLKGGKMLASGRREEVLTPPNLAQAYGMNFRRLDIEGHRMLISTI",binding result,[2],binds
"ModC, nucleotide binding subunit of ModBC of Archaeoglobus fulgidus (natural protein, A. fulgidus, construct pET19b-ModBC; source: E. coli BL21(DE3), co-purified as ModBC from membranes (DDM and C12E8, HisTrap, SEC)) MFLKVRAEKRLGNFRLNVDFEMGRDYCVLLGPTGAGKSVFLELIAGIVKPDRGEVRLNGADITPLPPERRGIGFVPQDYALFPHLSVYRNIAYGLRNVERVERDRRVREMAEKLGIAHLLDRKPARLSGGERQRVALARALVIQPRLLLLDEPLSAVDLKTKGVLMEELRFVQREFDVPILHVTHDLIEAAMLADEVAVMLNGRIVEKGKLKELFSAKNGEVAEFLSARNLLLKVSKILD",binding result,[3],binds
"periplasmic vitamin B12 substrate-binding protein BtuF of Escherichia coli (aa 23-266) (natural protein, E. coli, UniProt P37028 23-266, looked up, also called SBP; source: E. coli BL21(DE3), purified (HisTrap, SEC; same protocol as ModA, final buffer with 10 mM DTT)) APRVITLSPANTELAFAAGITPVGVSSYSDYPPQAQKIEQVSTWQGMNLERIVALKPDLVIAWRGGNAERQVDQLASLGIKVMWVDATSIEQIANALRQLAPWSPQPDKAEQAAQSLLDQYAQLKAQYADKPKKRVFLQFGINPPFTSGKESIQNQVLEVCGGENIFKDSRVPWPQVSREQVLARSPQAIVITGGPDQIPKIKQYWGEQLKIPVIPLTSDWFERASPRIILAAQQLCNALSQVD","uncomplexed BtuCD relative to BtuCD-F (100%), with dicyanocobinamide",[4],44%
same,"uncomplexed BtuCD relative to BtuCD-F (100%), with vitamin B9",[4],15%
same,"uncomplexed BtuCD relative to BtuCD-F (100%), with vitamin B12",[4],45%
same,"uncomplexed BtuCD relative to BtuCD-F, no substrate",[4],10%
same,"uncomplexed BtuCD relative to BtuCD-F, with AMP-PNP",[4],43%
same,"uncomplexed BtuCD relative to BtuCD-F, with ATP",[4],40%

# Reference: article PMC6453779, “The Different Effects of Substrates and Nucleotides on the Complex Formation of ABC Transporters” (Structure(London, England:1993), 2019)
